Experimental data: US6969760

Key:
[1] = biological target: IFN-γ receptor on 2C4 and mutant γ-1 cells (human HT1080-derived) (human) (UniProt P15260); assay: binding of 125I-labeled IFN-γ diluted to a lower specific activity, cells at 0° C.
[2] = biological target: IFN-γ receptor on 2C4 and mutant γ-1 cells (human HT1080-derived) (human) (UniProt P15260); assay: binding of 125I-labeled IFN-γ to 10^6 2C4 or γ-1 cells, 90 min at 0° C., non-specific binding subtracted

- receptors per cell (saturation binding) (receptors per cell) [1]: 10000
- receptors per cell (specific binding at the highest IFN-γ concentration) (receptors per cell) [2]: 6000
Substance: 125I-labeled human IFN-γ (from UniProt P01579 24-166) (ligand)
